Common to all, as to assay: SPR
A general note: SPR reads the build-up and loss of mass on a sensor chip optically.

Experiment [1] has as its target T1, FcgRIIa H (human, UniProt P12318).
T1 chain: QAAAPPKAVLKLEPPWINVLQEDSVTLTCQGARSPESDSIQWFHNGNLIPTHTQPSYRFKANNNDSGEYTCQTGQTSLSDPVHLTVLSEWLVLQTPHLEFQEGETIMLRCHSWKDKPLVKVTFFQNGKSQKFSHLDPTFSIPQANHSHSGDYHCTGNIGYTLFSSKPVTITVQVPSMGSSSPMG

For experiment [2], the target named is T2, FcgRIIIa F (human, UniProt P08637).
Experiment [3] addresses T3, FcgRIIa R (human, UniProt P12318).
T3 chain: T1 chain with H134R

For experiment [4], the target named is T4, FcgRIa (human, UniProt P12314).
T4 chain: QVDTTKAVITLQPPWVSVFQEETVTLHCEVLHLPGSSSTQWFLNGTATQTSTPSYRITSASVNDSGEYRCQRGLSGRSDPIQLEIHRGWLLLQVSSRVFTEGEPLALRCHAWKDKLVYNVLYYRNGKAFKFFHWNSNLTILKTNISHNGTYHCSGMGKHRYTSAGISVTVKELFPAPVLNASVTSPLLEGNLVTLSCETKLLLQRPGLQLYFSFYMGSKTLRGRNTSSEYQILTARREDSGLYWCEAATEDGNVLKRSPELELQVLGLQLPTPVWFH

The target of experiment [5] is T5, FcgRIIb (human, UniProt P31994).
T5 chain: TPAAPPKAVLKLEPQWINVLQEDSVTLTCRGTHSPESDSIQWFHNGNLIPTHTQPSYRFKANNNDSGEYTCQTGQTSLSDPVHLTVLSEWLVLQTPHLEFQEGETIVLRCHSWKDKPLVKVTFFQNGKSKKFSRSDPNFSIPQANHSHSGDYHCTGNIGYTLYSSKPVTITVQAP

In experiment [6] the target is T6, FcgRIIIa V (human, UniProt P08637).
T6 sequence (P08637 17-208 F176V): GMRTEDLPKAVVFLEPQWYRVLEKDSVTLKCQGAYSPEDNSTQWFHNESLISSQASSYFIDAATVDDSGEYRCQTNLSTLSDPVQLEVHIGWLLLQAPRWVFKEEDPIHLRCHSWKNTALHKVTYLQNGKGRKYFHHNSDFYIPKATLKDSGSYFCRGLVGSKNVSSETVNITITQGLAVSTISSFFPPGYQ
Experiment [7] deals with T3, FcgRIIa R.
In experiment [8] the target is T1, FcgRIIa H.
The target of experiment [9] is T4, FcgRIa.
Experiment [10] concerns the target T5, FcgRIIb.
For experiment [11], the target named is T6, FcgRIIIa V. The source holds these as a separate data set.
Experiment [12] concerns the target T2, FcgRIIIa F. This is another data set of the same source.

The values that follow come from patent publication US10766960 (dated 2020).

Residue numbers refer to the chain shown, from its start. Like-named read-outs stand apart in the source and are kept apart here.

One may read the Kd as the constant that tells how readily two partners part at equilibrium. A low value points to higher affinity.

T2 sequence (P08637 17-208): as the sequence (P08637 17-208 F176V) above, with V160F counted along it

B1: H240-Kn234/H240-Hl068/L73-k0 (antibody)
chain 1: QDQLVQSGAEVKKPGASVKVSCKASGFNIKDTYIQWVRQAPGQGLEWMGRIDPLRKQTKYREKFEGRVTITADTSTNTAYMELSSLRSEDTAVYYCVRSGREFDYWGQGTLVTVSSASTKGPSVFPLAPSSKSTSGGTAALGCLVKDYFPEPVTVSWNSGALTSGVHTFPAVLQSSGLYSLSSVVTVPSSSLGTQTYICNVNHKPSNTKVDKKVEPKSCDKTHTCPPCPAPEDYWGPIVFLFPPKPKDTLMISRTPEVTCVVVDVSDEDPEVKFNWYVDGVEVHNAKTKPREEQYNATYRVVSVLTVLHQDWLNGKEYKCKVSNKDLPAPIEKTISKAKGQPREPQVCTLPPSRDELTKNQVSLWCLVKGFYPSDIAVEWESNGQPENNYKTTPPVLDSDGSFFLYSKLTVDKSRWQQGNVFSCSVMHEALHNHYTQKSLSLSP
chain 2: QDQLVQSGAEVKKPGASVKVSCKASGFNIKDTYIQWVRQAPGQGLEWMGRIDPLRKQTKYREKFEGRVTITADTSTNTAYMELSSLRSEDTAVYYCVRSGREFDYWGQGTLVTVSSASTKGPSVFPLAPSSKSTSGGTAALGCLVKDYFPEPVTVSWNSGALTSGVHTFPAVLQSSGLYSLSSVVTVPSSSLGTQTYICNVNHKPSNTKVDKKVEPKSCDKTHTCPPCPAPELLGGPSVFLFPPKPKDTLMISRTPEVTCVVVDVSHEEPEVKFNWYVDGVEVHNAKTKPREEQYNSTYRVVSVLTVLHQDWLNGKEYKCKVSNDALPKPIEETISKAKGQPREPQVYTLPPSRCELTKNQVSLSCAVKGFYPSDIAVEWESNGQPENNYKTTPPVLDSDGSFFLVSKLTVDKSRWQQGNVFSCSVMHEALHNHYTQKSLSLSP
chain 3: DIQMTQSPSSLSASVGDRVTITCRASQDIHKYIAWYQQKPGQAPRLLIQYTSTLQPGVPSRFSGSGSGTDYTFTISSLQPEDIATYYCLQYEQLRTFGGGTKVEIKRTVAAPSVFIFPPSDEQLKSGTASVVCLLNNFYPREAKVQWKVDNALQSGNSQESVTEQDSKDSTYSLSSTLTLSKADYEKHKVYACEVTHQGLSSPVTKSFNRGEC
For the molecule B1, the Kd in experiment [1] is 65 nM; in [2], 2.3 nM; in experiment [3] it was 21 nM; in experiment [4], 0.19 nM; in experiment [5], 140 nM; in experiment [6], 0.68 nM.

B2: H240-Kn218/H240-Hl068/L73-k0 (antibody)
chain 1: B1 chain 1 with D233Q, I238M
chain 2: B1 chain 2
chain 3: B1 chain 3
Turning to B2, the Kd came out at 37 nM in [7]; 33 nM in experiment [8]; 0.14 nM in [9]; 220 nM in experiment [10]; 0.5 nM in experiment [11]; 3.5 nM in [12].

B3: H240-Kn222/H240-Hl068/L73-k0 (antibody)
chain 1: B1 chain 1 with D233A, I238M
chain 2: B1 chain 2
chain 3: B1 chain 3
For B3, the Kd in experiment [7] was determined as 28 nM; in experiment [8], 49 nM; in experiment [9] it was 0.14 nM; in experiment [10] it was 190 nM; in experiment [11] it was 0.54 nM; in [12], 3.3 nM.

B4: H240-Kn204/H240-Hl211/L73-k0 (antibody)
chain 1: B1 chain 1 with D233Y, Y234L, W235G, I238S, D267H, K289Y, Y295W, A297S, D326A
chain 2: B1 chain 2 with S238D, E269D, D325K, K329M, E333V
chain 3: B1 chain 3
Turning to B4, the Kd was 640 nM in experiment [7]; 760 nM in experiment [8]; 0.038 nM in [9]; 1300 nM in experiment [10]; 7.4 nM in experiment [11]; 14 nM in experiment [12].

B5: H240-Kn207/H240-Hl076/L73-k0 (antibody)
chain 1: B1 chain 1 with D233V, Y234Q, I238M, D269E, D326A
chain 2: B1 chain 2 with K329M
chain 3: B1 chain 3
For the molecule B5, the Kd in experiment [7] was 680 nM; in experiment [8] it was 170 nM; in experiment [9], 0.085 nM; in experiment [10], 5200 nM; in experiment [11] it was 0.49 nM; in experiment [12] it was 1.9 nM.

B6: H240-Kn221/H240-Hl068/L73-k0 (antibody)
chain 1: B1 chain 1 with D233T, I238M
chain 2: B1 chain 2
chain 3: B1 chain 3
With B6, the Kd in experiment [7] worked out at 29 nM; in experiment [8] it was 44 nM; in [9], 0.18 nM; in [10], 220 nM; in experiment [11], 0.47 nM; in experiment [12], 2.7 nM.

B7: H240-Kn224/H240-Hl068/L73-k0 (antibody)
chain 1: B1 chain 1 with D233H, I238M
chain 2: B1 chain 2
chain 3: B1 chain 3
As for B7, the Kd was 54 nM in experiment [7]; 57 nM in [8]; 0.14 nM in [9]; 360 nM in experiment [10]; 0.53 nM in experiment [11]; 4 nM in [12].

B8: H240-Kn202/H240-Hl214/L73-k0 (antibody)
chain 1: B1 chain 1 with D233E, Y234Q, I238M, D269E, D326A
chain 2: B1 chain 2 with K329F
chain 3: B1 chain 3
With B8, the Kd in experiment [1] was found to be 440 nM; in experiment [2], 2.6 nM; in [3] it was 830 nM; in experiment [4], 0.09 nM; in [5] it was 6100 nM; in experiment [6], 0.95 nM.

B9: H240-Kn205/H240-Hl212/L73-k0 (antibody)
chain 1: B1 chain 1 with D233Y, Y234L, W235G, I238S, D267H, Y295W, A297C, D326A
chain 2: B1 chain 2 with S238D, E269D, D325K, K329A, E333V
chain 3: B1 chain 3
Consider B9, for which the Kd in [7] amounted to 610 nM; in experiment [8] it was 370 nM; in experiment [9], 0.054 nM; in experiment [10], 1600 nM; in experiment [11] it was 4.2 nM; in experiment [12], 12 nM.

B10: H240-Kn227/H240-Hl214/L73-k0 (antibody)
chain 1: B1 chain 1 with D233E, Y234Q, D269E, D326A
chain 2: B1 chain 2 with K329F
chain 3: B1 chain 3
Take B10: the Kd was determined as 290 nM in experiment [1]; 1.8 nM in experiment [2]; 370 nM in [3]; 0.13 nM in [4]; 2800 nM in [5]; 0.8 nM in [6].

B11: H240-Kn198/H240-Hl068/L73-k0 (antibody)
chain 1: B1 chain 1 with D233L, Y234Q, I238M, D269E, D326A
chain 2: B1 chain 2
chain 3: B1 chain 3
Turning to B11, the Kd in experiment [1] was determined as 49 nM; in experiment [2] it was 3.7 nM; in [3], 240 nM; in [4], 0.24 nM; in experiment [5], 1600 nM; in [6] it was 0.85 nM.

B12: H240-Kn189/H240-Hl068/L73-k0 (antibody)
chain 1: B1 chain 1 with D233S, I238M
chain 2: B1 chain 2
chain 3: B1 chain 3
In the case of B12, the Kd was found to be 23 nM in experiment [7]; 48 nM in experiment [8]; 0.16 nM in experiment [9]; 150 nM in [10]; 0.52 nM in experiment [11]; 3.2 nM in experiment [12].

B13: H240-Kn213/H240-Hl076/L73-k0 (antibody)
chain 1: B1 chain 1 with D233A, Y234Q, I238M, D269E, D326A
chain 2: B1 chain 2 with K329M
chain 3: B1 chain 3
On to B13, for which the Kd was determined as 820 nM in experiment [7]; 210 nM in experiment [8]; 0.082 nM in experiment [9]; 6100 nM in experiment [10]; 0.73 nM in experiment [11]; 2.6 nM in experiment [12].

B14: H240-Kn198/H240-Hl076/L73-k0 (antibody)
chain 1: B1 chain 1 with D233L, Y234Q, I238M, D269E, D326A
chain 2: B1 chain 2 with K329M
chain 3: B1 chain 3
In the case of B14, the Kd in [7] was found to be 630 nM; in experiment [8], 140 nM; in experiment [9], 0.083 nM; in experiment [10], 6300 nM; in experiment [11], 0.54 nM; in [12], 1.5 nM.
